In the supplement of paper PMC9170038:

Test system: MS2 coat protein
Assay: apparent KD of MS2 coat protein; higher = weaker reporter binding
Settings: Eterna round: R107
Procedure, shortened: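 In 100 mM Tris-HCl pH 7.5 with 80 mM KCl and 4 mM MgCl2, and without or with constant ligand, SNAP-549-labelled MS2 coat protein was titrated in twofold steps from 0.7 or 1.5 nM to 3 µM. Per-step times went from 0.8–1.5 h down to 10–20 min. The RNA switches were transcribed on-chip from Illumina sequencing clusters, and apparent KD is the per-design median of normalised cluster binding-curve fits.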

[1] = input ligand: theophylline 20 uM
[2] = input ligand: theophylline 2 mM
[3] = input ligand: tryptophan 2.4 mM

| Sequence | apparent KD of MS2 coat protein (input ligand: arginine 13.2 mM) | apparent KD of MS2 coat protein [1] | apparent KD of MS2 coat protein [2] | apparent KD of MS2 coat protein (input ligand: none) | apparent KD of MS2 coat protein [3] |
| --- | --- | --- | --- | --- | --- |
| UGUAUUGGAAACAGUACUAGUGAUCCGGUCCGAGGACCGGUACGGCCGCCACUCGAAAUUAAUAAACAUGAGGAUCACCCAUGUA [Ex Tryptophan A 11] | 15.7 nM | 19.7 nM | 20.2 nM |  |  |
| CCUCGACAUGAGGAUCACCCAUGUAGAGAUACCAGCCUGUGAGAUGGCCCUUGGCAGCUCAUAUAGGGUACGGGAGUCGUUUCGA [Eslaqu] | 19.4 nM | 48.4 nM | 263 nM | 22.2 nM | 22.1 nM |
| ACAUGAGGAUCACCCAUGUGAAGCAGGGUACGAGGACCGGUACGGCCGCCACUCGAACAUUAUAACGAGUGAAUGGCAACGAUGU [B15Jan] | 15.7 nM | 18.5 nM | 13.8 nM |  |  |
| CGCAAGCAACAUGAGGAUCACCCAUGUGAAGGAGCGCCGAAUAAGGCAGGUAGGUCGCACAUGAAUAAAUCAUGUAAAAGCUUGC [MAT - Exclusion Arginine A - Mod of Eli - D22] | 33.7 nM | 52.9 nM | 160 nM | 62.7 nM | 58.3 nM |
| CCUAUGCAGUCGGCCGCCACUGAGUCCUCAAUAAUAAAUUAAUAAACAUGAGGAUCACCCAUGUACAGGACCGGGACUGUAUAGG [Ex Tryptophan B 12] | 165 nM | 324 nM | 441 nM |  |  |
| CUACAUUUGUAGAAACCGGUCAACAAUAAUCGAGGACCGGUACGGCCGCCACUCGUAUAAUUUAUUACAUGAGGAUCACCCAUGU [Tryptophan A 2] | 13.6 nM | 16.7 nM | 15.4 nM |  |  |
| GAGCUGAUGUAGAGCCUUUAGUUCUGAGAUACCAGUACAGAAAUGUACCCUUGGCAGCUCAGCUUUACAUGAGGAUCACCCAUGU [Ex Theophylline A 17] | 20 nM | 27.7 nM |  |  | 23.5 nM |
| UACUUGCUGACGGCCGCCACUAGUACAUGAGGAUCACCCAUGUACGGUCGCCCGGUGUGAUCCACUAGGACCGGGUCAGCAAGAU [(Trp1)-(Ms2)-(T)'-(M)'-(Trp2)_Design24] | 38.4 nM | 42.9 nM | 48.5 nM |  |  |
| UGGUACAUGGCGGCCGCCACUGGGUUGAAAACCUGAGGAUCACCCUGGUAAAACGCGAAAGCGACUAGGACCGGGUCAUGUACCU | 167 nM | 891 nM | 787 nM | 573 nM | 70.5 nM |
| UUAUAAGUACCGGUCCUCAGAUCCUCAUGACGAGGACCGGUACGGCCGCCACUCGAAACAUGAGGAUCACCCAUGUAAUAACACU [Brourdmod20] | 19.2 nM | 30.4 nM | 24.6 nM |  |  |
| AAUAUAAGUGUAAUUAUAUGUAUCUCUGAUACCAGACUCUCAUGUGUCCCUUGGCAGCAGUUACAUGAGGAUCACCCAUGUAUUA [JR_Nu_SSTheophyA_Sub024] | 34.3 nM | 80.2 nM |  |  | 84.5 nM |
| AAAUAAAUACAUGAGGAUCACCCAUGUGAAGGAGCGCCCGUUAGGGCAGGUAGGUCGCGCAUGAAUAACUCCGUGCAAAAGCACA [ArgEX 19 #OpenEnded] | 57.8 nM | 37.3 nM | 26.4 nM | 15.6 nM | 19.6 nM |
| AAAACAUGAGGAUCACCCAUGUGGUGAGAAGGAGCGUCGGAAAUGACAGGUAGGUCGCUUAUCCGUAAGUAUUAGUGUUAGUACA [SSArg A #1] | 140 nM | 290 nM | 388 nM | 280 nM | 335 nM |
| ACCUGUACGAAAAGUGCAGGACACGGAAUACGAGGACCGGUACGGCCGCCACUCGGAAUAAACCUGAGGAUCACCCUGGUCCGUG [TrypAS 9 #AlternativeMS2 #Zipper #StaticStem] | 26.8 nM | 39.1 nM | 34.4 nM | 25.1 nM | 32.2 nM |
| UUGCCCAGUACGGCCGCCACUGUGUGCAGGGAACCCAGGUCCACAUGAGGAUCACCCAUGUACAGCAGGACCGGGUACUUGCAAU [Ininladia] | 8.14 nM | 11.9 nM | 10.6 nM |  |  |
| AUCUGUAUGUUUUCGUGUUUUAUUACAGAUACCAGACUAUACGUUGUCCCUUGGCAGCUGGAUGACAUGAGGAUCACCCAUGUUG [#27 Exclusion-TheophyllineA] | 24 nM | 41.2 nM |  |  | 31.8 nM |
| UACAUGAGGAUCACCCAUGUCCCAUGUGAACGAGGACCGGUACGGCCGCCACUCGAAUAAGGCGGCACAUGAGGAUCACCCACAU [AstrosSSTry#2] | 283 nM | 352 nM | 399 nM |  |  |
| AAUAAUCUAGGUGAUACCAGCUCAACAUGAGGAUCACCCAUGUACUCAUGUAGAGUUGAGAGCCCUUGGCAGCACCUAGAUAAUA [(Theo1)-(Ms2)-(M)'-(T)'-(Theo2)] | 198 nM | 665 nM |  |  | 1020 nM |
| UAAAACAUGAGGAUCACCCAUGUAUUUGAUACCAGAGUGAUGAUCCUCCCUUGGCAGCAAAUAACGCAUUGAUUACAAUGCGAAA [Mat - Same State Theophlline A - Mod of Eli - D28] | 34.8 nM | 121 nM |  |  | 36 nM |

| Sequence | apparent KD of MS2 coat protein (input ligand: arginine 13.2 mM) | apparent KD of MS2 coat protein [1] | apparent KD of MS2 coat protein [2] | apparent KD of MS2 coat protein (input ligand: none) | apparent KD of MS2 coat protein [3] |
| --- | --- | --- | --- | --- | --- |
| UCAUGACAUGGGAAUAAAUAAGAAGGCGAAGGAGCGUGAAGAUUCACAGGUAGGUCGCGCAAAAUACAUGAGGAUCACCCAUGUU [JR_Nu_ExcArginiA_Sub032] | 33 nM | 53.2 nM | 43.9 nM | 30.4 nM | 37.3 nM |
| GUCCAAAGGUCGGCCGCCACUGUAGAGUGUGUUCUUUCACAUGAGGAUCACCCAUGUUGUUAUUAUAGGACCGGGAUUGUAGGAC [#21 Exclusion Tryptophan B] | 17.2 nM | 31.1 nM | 23.4 nM |  |  |
| UGAUACACGGGAAGGAGCGACAGGGAUAAGUCCGCACGGGCCGCACAUGAGGAUCACCCAUGUCAGGUAGGUCGCCCGUGGCGUG [Erxemarima] | 13 nM | 19.6 nM | 16 nM | 13.5 nM | 12.9 nM |
| AGGGACAUGAGGAUCACCCAUGUUGAAACUCGAGGACCGGUACGGCCGCCACUCGUAUAAUCGAUGUCCAUUUGGGAUUCCGGCU [theeternabot_sameState_MS2_Trp_A_17] | 21.4 nM | 32.8 nM | 39 nM |  |  |
| AUUCAUGGAAACAUGACAUAGGGAUCUAGCCGAGGACCGGUACGGCCGCCACUCGCUUGGAGGCACAUGAGGAUCACCCAUGUUA [SS Tryp A #6] | 42.3 nM | 140 nM | 140 nM |  |  |
| UCACAUGAGGAUCACCCAUGUAUAGUUGAAGGAGCGAUCAGGAGGUCAGGUAGGUCGCAGCACAUGAGGAUCACCCAUGUAUCGA [DOUBLE!!! :-D #4] | 34 nM | 72.7 nM | 50.4 nM | 85.2 nM | 59.5 nM |
| AGAGCAUUGACGGCCGCCACUCAUGUCACAUGAGGAUCACCCAUGUGAUGGGUAAUUGCCCGGUUGAGGACCGGGUCAAUGCUCA [Omei Tryp SS B v4] | 5.88 nM | 11.3 nM | 10.1 nM | 8.32 nM | 9.74 nM |
| GUUUUAUACUCGGCCGCCACUGAGAGAGUCAUGUAAACAUGAGGAUCACCCAUGUAAUAUAUAUACAGGACCGGGAGUAGGGUAA [4.F] | 10.1 nM | 16.1 nM | 12.2 nM |  |  |
| CUAUAAAUAUGAAGGAGCGUCGAAAAUGGGUAAACAUGAGGAUCACCCAUGUAAAGGGAACGACAGGUAGGUCGCAUAUUUAUAG [AstromonsSSArgB#11] | 139 nM | 188 nM | 257 nM | 180 nM | 219 nM |
| GCGUACGAUCGGGAUACCAGACAUUGCCGUUAGGGUGAACUUGAGGAUCACCCAAGUUUUGUCCCUUGGCAGCCCGAUCGUACGC [ETB NP+V+V2 #9 Diff Apt, Same Structure] | 9.92 nM | 19.4 nM | 220 nM | 10 nM | 10.4 nM |
| ACAUCCAGAUUAAUCGUGGGCAUACUCGAUACCAGUAUUUUAACCUACCCUUGGCAGCGACAUGAGGAUCACCCAUGUGAGAUGA [XTheo A #10] | 21.4 nM | 25.2 nM |  |  | 23.8 nM |
| AGAAUAACACAUGAGGAUCACCCAUGUGAUACCAGCUAGGAAACUAGCCCUUGGCAGCACAUAAGGUGAUCCAGCUGCCAAGAAU [(M1)-(M2)-(T1)-(T2)-(M)'-(T)'_Design1_2/19/17] | 65.2 nM | 175 nM |  |  | 102 nM |
| CUAUUCUGUACGGCCGCCACUUCAACGUGUAAGCUGGUGGUCCACUACAUGAGGAUCACCCAUGUAAGGACCGGGUACGGCGCGG [theeternabot_exclusion_MS2_Trp_B_29] | 12 nM | 16.6 nM | 69.4 nM | 12.5 nM | 40 nM |
| CUCUGAGUGAGGAAUCACUCAGAGGCGGAUACCAGCGAGGUCCAUCGCCCUUGGCAGCCGAACAUGAGGAUCACCCAUGUCGGUA [#1 Same State - Theophylline A Attempt #23 (HarryS)] | 9.44 nM | 12.1 nM | 13.5 nM | 9.45 nM | 9.3 nM |
| AGACACAUGAGGAUCACCCAUGUACACGAGCGAGGACCGGUACGGCCGCCACUCGUCCAAGCAACUAAUGAGACUCGUAAGAUGG [theeternabot_sameState_MS2_Trp_A_5] | 17.1 nM | 31.6 nM | 23.4 nM |  |  |
| AUAAGUAAUGUCUCGUGUAUUAUUACAGAUACCAGACUAUCCUAUGUCCCUUGGCAGCUGGAUUACAUGAGGAUCACCCAUGUGG [#11 Exclusion-TheophyllineA] | 37.6 nM | 49.5 nM |  |  | 42 nM |
| AAAACAUGAGGAUCACCACAUGACAUGAGGCGAGGACCGGUACGGCCGCCACUCGACAUACAUGAGGAUCACCCAUGUUUGUUGU [Exclusion Tryptophan A 4] | 40.7 nM | 274 nM | 460 nM |  |  |
| CCUCGACAUGAGGAUCACCCAUGUAGAGAUACCAGCCUGUGAGAUGGCCCUUGGCAGCUCAUAUAGGGUACAGGAGUCGUUUUGA [Qugetila] | 23.5 nM | 63.2 nM |  |  | 23.9 nM |
